Key:
[1] = biological target: HsdM subunit encoded by the chromosome of the IL1403 strain (L. lactis ssp lactis (strain IL1403)); assay: cell-based or functional assay
[2] = biological target: HsdR subunit encoded by the chromosome of the IL1403 strain (L. lactis ssp lactis (strain IL1403)); assay: cell-based or functional assay
Sequence of HsdR subunit encoded by the chromosome of the IL1403 strain (L. lactis ssp lactis (strain IL1403)) (chain, as listed by the source limits assumed): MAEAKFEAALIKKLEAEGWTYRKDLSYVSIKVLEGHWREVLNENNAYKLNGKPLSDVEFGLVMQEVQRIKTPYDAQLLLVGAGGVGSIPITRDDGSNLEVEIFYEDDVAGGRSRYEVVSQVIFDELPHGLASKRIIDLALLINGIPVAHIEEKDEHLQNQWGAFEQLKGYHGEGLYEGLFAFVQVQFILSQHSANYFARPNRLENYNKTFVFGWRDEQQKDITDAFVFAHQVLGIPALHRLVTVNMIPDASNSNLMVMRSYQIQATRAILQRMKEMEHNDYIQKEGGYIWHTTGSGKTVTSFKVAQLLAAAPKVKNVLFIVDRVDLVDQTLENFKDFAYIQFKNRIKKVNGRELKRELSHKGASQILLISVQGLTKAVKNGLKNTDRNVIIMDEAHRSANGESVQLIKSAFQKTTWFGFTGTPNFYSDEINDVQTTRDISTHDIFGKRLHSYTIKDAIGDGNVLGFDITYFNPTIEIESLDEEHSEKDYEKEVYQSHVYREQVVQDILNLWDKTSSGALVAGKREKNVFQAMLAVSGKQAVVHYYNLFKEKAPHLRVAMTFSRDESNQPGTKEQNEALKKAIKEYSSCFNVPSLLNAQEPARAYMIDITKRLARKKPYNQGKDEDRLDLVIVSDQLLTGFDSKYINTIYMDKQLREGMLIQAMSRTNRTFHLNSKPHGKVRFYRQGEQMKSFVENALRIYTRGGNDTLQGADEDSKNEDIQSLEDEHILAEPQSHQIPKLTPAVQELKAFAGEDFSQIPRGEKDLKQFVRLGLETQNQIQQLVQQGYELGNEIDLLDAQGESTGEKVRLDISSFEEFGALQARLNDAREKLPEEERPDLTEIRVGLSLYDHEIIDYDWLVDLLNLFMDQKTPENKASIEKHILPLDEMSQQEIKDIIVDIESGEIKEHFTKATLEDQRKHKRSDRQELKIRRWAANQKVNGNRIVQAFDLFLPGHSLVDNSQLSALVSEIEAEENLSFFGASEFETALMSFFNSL

Sequence of HsdM subunit encoded by the chromosome of the IL1403 strain (L. lactis ssp lactis (strain IL1403)) (chain, as listed by the source limits assumed): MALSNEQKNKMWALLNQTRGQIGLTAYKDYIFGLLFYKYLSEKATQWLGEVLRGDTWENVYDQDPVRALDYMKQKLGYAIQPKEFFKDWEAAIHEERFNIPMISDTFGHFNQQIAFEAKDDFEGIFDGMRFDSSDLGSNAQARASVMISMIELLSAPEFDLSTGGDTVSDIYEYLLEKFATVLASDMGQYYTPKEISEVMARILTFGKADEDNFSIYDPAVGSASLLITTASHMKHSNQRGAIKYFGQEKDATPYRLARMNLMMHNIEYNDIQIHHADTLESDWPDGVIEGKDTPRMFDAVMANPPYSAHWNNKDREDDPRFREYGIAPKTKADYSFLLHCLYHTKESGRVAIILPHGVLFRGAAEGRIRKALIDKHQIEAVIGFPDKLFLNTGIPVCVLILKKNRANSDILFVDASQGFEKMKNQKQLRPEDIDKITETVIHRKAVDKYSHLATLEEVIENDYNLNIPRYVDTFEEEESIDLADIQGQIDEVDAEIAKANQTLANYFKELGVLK

Row | EOP (efficacy of propagation) of bIL67 phage on IL1403 transformed with pIL7, against IL1403 without plasmids [1] | EOP (efficacy of propagation) of bIL67 phage on IL1403 transformed with pIL7, against IL1403 without plasmids [2] | EOP (efficacy of propagation) of bIL67 phage on IL1403 transformed with pIL261, against IL1403 without plasmids [1] | EOP (efficacy of propagation) of bIL67 phage on IL1403 transformed with pIL261, against IL1403 without plasmids [2] | Substance
1 | 0.006 | 0.006 | – | – | HsdS subunit encoded by the pIL7 plasmid
2 | – | – | 6e-07 | 6e-07 | HsdS subunit encoded by the pIL261 plasmid (orf2 of the 3.7 kb EcoRI insert from pIL103)

— patent publication US20020164732A1
